According to paper PMC5267525, “Sec3 promotes the initial binary t-SNARE complex assembly and membrane fusion” (Nature Communications, 2017):

B1: Sec3 N-terminal domain (a.a. 75–320) (domain or fragment, yeast, UniProt P33332 75-320, looked up)
chain: SNFLAEQYERDRKAIINCCFSRPDHKTGEPPNNYITHVRIIEDSKFPSSRPPPDSKLENKKKRLLILSAKPNNAKLIQIHKARENSDGSFQIGRTWQLTELVRVEKDLEISEGFILTMSKKYYWETNSAKERTVFIKSLITLYIQTFEGHVPELVNWDLSLFYLDERSYQRAVITNRPGSVSPIKSPTSNFTTNTTQSVGSVPFSAPTERTRRSETESVNPVSTPASVEYHAGMKSLNKAPYSSNS
notes: Sec3, yeast exocyst subunit, N-terminal domain a.a; 75-320 (contains the PH domain); Cloned in the custom vector MalpET; tag cut off by tobacco etch virus protease; also called Sec3(a.a. 75–320); source: E. coli BL21(DE3), purified (Ni-HiTrap, HiTrap-Q HP, Superdex-200); not shown: MBP-His10, N-terminal, cleaved
B2: His6-Sso2 (cytosolic domain, a.a. 1–270) (domain or fragment, yeast, UniProt P39926 1-270, looked up)
chain: MSNANPYENNNPYAENYEMQEDLNNAPTGHSDGSDDFVAFMNKINSINANLSRYENIINQIDAQHKDLLTQVSEEQEMELRRSLDDYISQATDLQYQLKADIKDAQRDGLHDSNKQAQAENCRQKFLKLIQDYRIIDSNYKEESKEQAKRQYTIIQPEATDEEVEAAINDVNGQQIFSQALLNANRRGEAKTALAEVQARHQELLKLEKTMAELTQLFNDMEELVIEQQENVDVIDKNVEDAQQDVEQGVGHTNKAVKSARKARKNKIRC
notes: Sso2, yeast t-SNARE, cytosolic domain a.a; 1-270; also called pG707

Assays:
Details in all cases: both partners purified
[1] = biological target: T1, Sso2 (a.a. 1–270), as used in size-exclusion chromatography (yeast, UniProt P39926 1-270); assay: SEC; Superdex-200 16/60 column; proteins applied individually or in mixture, Sso2 with excess Sec3N
T1 construct: Sso2, yeast t-SNARE, a.a; The text says that this complex was later used for crystallization, for which the methods give Sso2 a.a; 36-227 with the His6 tag cleaved; the legend's limits are kept
T1 sequence (looked up): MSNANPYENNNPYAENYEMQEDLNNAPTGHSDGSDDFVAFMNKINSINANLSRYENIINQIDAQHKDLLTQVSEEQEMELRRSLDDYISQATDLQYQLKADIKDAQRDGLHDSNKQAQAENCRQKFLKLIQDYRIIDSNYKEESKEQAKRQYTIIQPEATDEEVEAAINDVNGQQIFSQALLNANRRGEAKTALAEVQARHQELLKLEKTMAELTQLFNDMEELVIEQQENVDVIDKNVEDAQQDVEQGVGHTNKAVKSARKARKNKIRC

[2] = biological target: T2, GST-Sec3N (Sec3 N-terminus, a.a. 1–320) (yeast, UniProt P33332 1-320); assay: pull-down; GST-Sec3N on glutathione Sepharose with His6-Sso2 or His6-Sec9C, or with both in three orders of addition (simultaneous; Sec3N and Sso2 pre-incubated 30 min; Sso2 and Sec9C pre-incubated 2 h); 5 μg His6-Sec9C; Coomassie blue
T2 construct: Sec3, yeast exocyst subunit, N-terminus a.a; 1-320; also called pG1860; source: E. coli BL21(DE3), purified (Glutathione Sepharose 4B)
T2 sequence (looked up): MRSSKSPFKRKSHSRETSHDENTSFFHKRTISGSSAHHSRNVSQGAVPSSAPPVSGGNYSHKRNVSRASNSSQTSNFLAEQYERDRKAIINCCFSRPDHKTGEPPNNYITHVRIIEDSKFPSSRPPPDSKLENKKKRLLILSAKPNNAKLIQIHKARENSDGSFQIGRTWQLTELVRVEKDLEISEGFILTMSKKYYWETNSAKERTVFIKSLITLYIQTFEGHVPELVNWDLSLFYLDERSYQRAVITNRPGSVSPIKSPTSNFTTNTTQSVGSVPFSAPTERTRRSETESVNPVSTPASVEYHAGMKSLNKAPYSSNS

[3] = biological target: B2; assay: pull-down; time course: His6-Sso2 (2 μM) alone added to GST-Sec9C (20 μg) on glutathione Sepharose 4B, 100 μl, 25 °C; bound Sso2 quantified from Coomassie gels; apparent rate constant from a second-order fit
[4] = biological target: T3, His6-Sso2-mutHL2 (a.a. 1–270, 170DVNGQ174 to 170GSSGG174) (yeast, UniProt P39926 1-270, 170DVNGQ174 to 170GSSGG174); assay: as above
T3 construct: Sso2, yeast t-SNARE, cytosolic domain a.a; 1-270, mutated directly from pG707; also called pG1971
T3 sequence (looked up): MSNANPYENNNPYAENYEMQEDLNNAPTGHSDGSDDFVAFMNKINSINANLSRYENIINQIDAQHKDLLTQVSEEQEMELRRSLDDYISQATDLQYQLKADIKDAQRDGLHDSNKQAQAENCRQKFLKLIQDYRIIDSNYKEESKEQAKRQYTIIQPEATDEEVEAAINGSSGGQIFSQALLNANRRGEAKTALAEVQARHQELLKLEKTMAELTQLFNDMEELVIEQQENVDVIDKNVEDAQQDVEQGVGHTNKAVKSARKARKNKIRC

[5] = biological target: B2; assay: pull-down; time course as a6, but His6-Sso2 (2 μM) pre-incubated with His6-Sec3N (2 μM) for 30 min at 25 °C before GST-Sec9C (20 μg) on glutathione Sepharose 4B; apparent rate constant from a second-order fit
[6] = biological target: T2, GST-Sec3N (Sec3 N-terminus, a.a. 1–320); assay: co-sedimentation; liposomes containing Sso2 incubated with Sec9C in the presence or absence of Sec3N at 25 °C for 30 min; liposomes collected by sedimentation; SDS-PAGE, Coomassie blue; Sso2-free liposomes as control
[7] = biological target: B1; assay: crystal structure; crystal form 1, space group C222(1); 0.1 M HEPES pH 7.0, 0.2 M NaCl, 25% PEG 3350; 2.20 Å

B1: binds [1].

B2: binds [2].

B3: GST-tagged Sec9 C-terminal SNARE domain (a.a. 414–651) (domain or fragment, yeast, UniProt P40357 414-651, looked up)
chain: EEARQQQEEDEAVDEIKQEIKFTKQSSVASTRNTLKMAQDAERAGMNTLGMLGHQSEQLNNVEGNLDLMKVQNKVADEKVAELKKLNRSILAVHVSNPFNSKRRRREREEQLKNRKIEEKLMREQTSQQLSQSTQRIEGAMNANNNISEVRERYQRKNVLEKAKRYQFENDEEDDEMELEIDRNLDQIQQVSNRLKKMALTTGKELDSQQKRLNNIEESTDDLDINLHMNTNRLAGIR
notes: Sec9, yeast t-SNARE (SNAP-23 homologue), C-terminal SNARE domain a.a; 414-651; also called GST-Sec9C; pG1067; source: E. coli BL21(DE3), purified (Glutathione Sepharose 4B)
For B3, the kon [3] was 15.2 ± 0.6 M⁻¹ s⁻¹, the binding result [4] was “binds” and the kon [5] was 200 ± 90 M⁻¹ s⁻¹.

B4: Sso2 reconstituted in liposomes (natural protein, yeast, UniProt P39926 1-295, looked up)
chain: MSNANPYENNNPYAENYEMQEDLNNAPTGHSDGSDDFVAFMNKINSINANLSRYENIINQIDAQHKDLLTQVSEEQEMELRRSLDDYISQATDLQYQLKADIKDAQRDGLHDSNKQAQAENCRQKFLKLIQDYRIIDSNYKEESKEQAKRQYTIIQPEATDEEVEAAINDVNGQQIFSQALLNANRRGEAKTALAEVQARHQELLKLEKTMAELTQLFNDMEELVIEQQENVDVIDKNVEDAQQDVEQGVGHTNKAVKSARKARKNKIRCLIICFIIFAIVVVVVVVPSVVETRK
notes: Sso2, yeast t-SNARE, called the full-length Sso2 in the fusion assays; also called Sso2 liposomes; t-SNARE liposomes reconstituted with Sso2; source: reconstituted in POPC/DOPS liposomes
B4: binds [6].

B5: Sso2 Habc and SNARE motif (a.a. 36–227) (domain or fragment, yeast, UniProt P39926 36-227, looked up)
chain: DFVAFMNKINSINANLSRYENIINQIDAQHKDLLTQVSEEQEMELRRSLDDYISQATDLQYQLKADIKDAQRDGLHDSNKQAQAENCRQKFLKLIQDYRIIDSNYKEESKEQAKRQYTIIQPEATDEEVEAAINDVNGQQIFSQALLNANRRGEAKTALAEVQARHQELLKLEKTMAELTQLFNDMEELVIE
notes: Sso2, yeast t-SNARE, Habc and the SNARE motif, a.a; 36-227; Cloned in pET15b; tag removed by thrombin; also called Sso2 (a.a. 36–227); source: E. coli BL21(DE3), purified (Ni-HiTrap, HiTrap-Q HP, Superdex-200); not shown: His6, N-terminal, cleaved
B5: binds [7].
